Source: the DeepSol protein solubility set

Assay: soluble on expression in E. coli; label from the status in PepcDB or PDB records

For “MTSPDEHSPEKKDSENEVVPAGPKQKAKCLEKETKSPPKPSDLSKAERKEKNNKTARRDVKSSRGNVKTMKPSVVKVEERSSRSKKSIREGKLKNFSLPKDEPEITALQLDAELTKSARLMEEYKIALEQIITTLVSMMRRGNGTVDMENIVSDKGQTAAEKLNKEVQLTQNYWKTDTKLQPAMNDAIAKNTVVLAAAERNLQTQGPQHLKRVKKFLYGQYPKYVDMKRDLLKIVKQQKPEAQSVRDESAQAISKFIKEKYVNAKIYASRRNSKCFRRVELFPSYIRFYLASNR”, which “soluble on expression in E. coli” value is on record?
Its value is “soluble”.

Which “soluble on expression in E. coli” value does the source give for “MSLMKLTKLFLATAISLGVSSAVLAADYDLKFGMNAGTSSNEYKAAEMFAKEVKEKSQGKIEISLYPSSQLGDDRAMLKQLKDGSLDFTFAESARFQLFYPEAAVFALPYVISNYNVAQKALFDTEFGKDLIKKMDKDLGVTLLSQAYNGTRQTTSNRAINSIADMKGLKLRVPNAATNLAYAKYVGASPTPMAFSEVYLALQTNAVDGQENPLAAVQAQKFYEVQKFLAMTNHILNDQLYLVSNETYKELPEDLQKVVKDAAENAAKYHTKLFVDGEKDLVTFFEKQGVKITHPDLVPFKESMKPYYAEFVKQTGQKGESALKQIEAINPEGGSHHHHHH” here?
Its value is “soluble”.

For “MDAAKDLRMTQLLQDPHSVREEREKVLEVAIGREVRAFRKQQGITVAELSKLTDLSIGMLSKIENGNTSPSLTTLQTLANALSVPLTAFFKGYEEKREAIHTKAGQGLEIERAGTRAGHQYSLLGHIGSNSSGVIVEPYLITLSTESDTFKTFQHDGIEMIYMLEGKVDYLHGSEIYPLEPGDTLFFDADAPHGPERLVELPTRYLSVICYPQQKKG”, which “soluble on expression in E. coli” value is on record?
The value was “not soluble”.

Which “soluble on expression in E. coli” value does the source give for “MSEPLDLNQLAQKIKQWGLELGFQQVGITDTDLSESEPKLQAWLDKQYHGEMDWMARHGMLRARPHELLPGTLRVISVRMNYLPANAAFASTLKNPKLGYVSRYALGRDYHKLLRNRLKKLGEMIQQHCVSLNFRPFVDSAPILERPLAEKAGLGWTGKHSLILNREAGSFFFLGELLVDIPLPVDQPVEEGCGKCVACMTICPTGAIVEPYTVDARRCISYLTIELEGALPEELRPLMGNRIYGCDDCQLICPWNRYSQLTTEDDFSPRKPLHAPELIELFAWSEEKFLKVTEGSAIRRIGHLRWLRNIAVALGNAPWDETILTALESRKGEHPLLDEHIAWAIAQQIERRNACIVEVQLPKKQRLVRVIEKGLPRDA” here?
The value was “not soluble”.

Which “soluble on expression in E. coli” value does the source give for “MKLSCVIVSHNMKNYIGRCIDSVRTALADIRSLVGEAEIIVVDRGSTDGTANAARTAYADVTIVDVPFDAGWATAANKGACAATGETLLFVSPEVELLSGGLPRLLEHLETNPACAIAGGAVVSTSGALLHGPARFPGLLGKLAALTGLGSRFPRTMLDWTRYGGRNLDLPLEVDSVSFDYAVVKAAAFCKLGRFDARFHTAFADTDLCRRASRTMLPRPTVAFVPQARARAQDNFVLRDEVQAFDLHGTAVVRGRVRCEMLYVWKNYCILTSLANTTLELVGQACRYAMGLLPVIGCDKTARHSAAVLKETAQAALDTQLGSQYPTTPWLEHHHHHH” here?
The value was “not soluble”.

With “SASFDGPKFKMTDGSYVQTKTIDVGSSTDISPYLSLIREDSILNGNRAVIFDVYWDVGFPETETKTKTSGWSLSSVKLSTRNLCLFLRLPKPFHDNLKDLYRFFASKFVTFVGVQIEEDLDLLRENHGLVIRNAINVGKLAAEARGTLVLEFLGTRELAHRVLWSDLGQLDSIEAKWEKAGPEEQLEAAAIEGWLIVNVWDQLSDE” as the sequence, how does the “soluble on expression in E. coli” value read?
Its value is “soluble”.

Which “soluble on expression in E. coli” value does the source give for “MPFKPVEHPKCPKCGKSVYAAEEMSAGGYKWHKFCFKCNMCNKLLDSCTVAPHEAELYCKQCHGRKFGPKGVGFGLGAGCLTTDSGEKFGGSKQT” here?
Its value is “not soluble”.

Which “soluble on expression in E. coli” value does the source give for “MGSDKIHHHHHHMNNKERLLYVQEILQKETDEENELTLEQIMTKLHAVKGTEVNKKTLRDDLNALKDSGLFPISVNQEKNGVEKTYQHRTKLFTIQELRLLADALTTASFISKEETEQMINKLKKLTSHRLADHLDNRLLVPPDRGNREVQELIKTVHLLHDVIKHGEVIRYQYGQYNLTKEFTLRENGRFYTLKSYALIWDDQRYYLIGEDEDEDLIRYERVDQMYHVERTGAFFTWPEKFDLMEWLRTHSSVMTEQKEDLQLECHLDSLQDVLDCFGLDVTIQSLTDERFLLATKAVIDKGLMDWLFSLGGKVKVIHPPKLAEEIQREATAIIDQYRLANS” here?
The value was “not soluble”.

For “MYTAENAPGVAVLLSGDADVPGPLTGLPTHQDNLDTVIGRYSRLIVVGADADLGAVLTRLLRTDRLDVEVGYVPRRRSPATRAYRLPAGRRAARRARCGVARRVPLIRDETGSVIVGRAQWLPAEEQALIHGEAVVDDTVLFDGDVAGVCIEPTLTLPGLRAAVDGAGKWRRWIGGRAAQLGTTGAAVLRDGVAAPRPVRRSTFYRNVEGWLLVR”, which “soluble on expression in E. coli” value is on record?
The value was “soluble”.

For “MGHHHHHHSHVAVQTASKQVDGDYVVSEWSEIIEFCTADYSKVHLTQLLEKAEVIAGRMLKFSVFYRNQHKEYFDYVREHHGNAMQPSVKDNSGSHGSPISGKLEGIFFSCSTEFNTGKPPQDSPYGRYRFEIAAEKLFNPNTNLYFGDFYCMYTAYHYVILVIAPVGSPGDEFCKQRLPQLNSKDNKFLTCTEEDGVLVYHHAQDVILEVIYTDPVDLSLGTVAEITGHQLMSLSTANAKKDPSCKTCNISVGR”, which “soluble on expression in E. coli” value is on record?
Its value is “not soluble”.

With “SMVSPREKQQTNSKGSSNFCVKNIKQAEFGRREIEIAEQDMSALISLRKRAQGEKPLAGAKIVGCTHITAQTAVLIETLCALGAQCRWSACNIYSTQNEVAAALAEAGVAVFAWKGESEDDFWWCIDRCVNMDGWQANMILDDGGDLTHWVYKKYPNVFKKIRGIVEESVTGVHRLYQLSKAGKLCVPAMNVNDSVTKQKFDNLYCCRESILDGLKRTTDVMFGGKQVVVCGYGEVGKGCCAALKALGAIVYITEIDPICALQACMDGFRVVKLNEVIRQVDVVITCTGNKNVVTREHLDRMKNSCIVCNMGHSNTEIDVTSLRTPELTWERVRSQVDHVIWPDGKRVVLLAEGRLLNLSCSTVPTFVLSITATTQALALIELYNAPEGRYKQDVYLLPKKMDEYVASLHLPSFDAHLTELADDQAKYLGLNKNGPFKPNYYRY” as the sequence, how does the “soluble on expression in E. coli” value read?
Its value is “soluble”.

Which “soluble on expression in E. coli” value does the source give for “MGSDKIHHHHHHMIKVEDKSRCCGCEACVSSCPLQCIELVKDKEGFMYPQVDTARCIDCGKCEKACPELVEAKGSGGVTVYAAVNPDKEARLASSSGGIFTLLAESVLAENGVVFGARFDKDWNVIHDYTETKEGLEAFRGSKYVQSRTGETFKQAEQFLKEGRKVLFSGTPCQIMGLKRYLHKEYDNLLAVDFVCHGVPSPLVWRKYIEETLVRQDEKIQFRPTLNHLFLDEMPLIEGISFRNKCLGWKKYSFALILSKVTTAGEKNTVSLSRIFYDNAYMKAFLANLSLRPACYRCPAKSGKSGSDITLGDFWGIEKIAPELDDDRGCSLLIINNPKVRDELRKKGCLLAEFPISEILPYNLSTAYSVSMPNNRKFFWFMFDKAGFHKALMLATSTTFPIRALRKLFRLI” here?
Its value is “not soluble”.

With “MSLNISNVLFLLHQKFPDPLPDNPICTREETKLAGHLVNILKLAVDHDIDVEERDEVADETFSDWDSIEFEPNDGVIFSSPTELVFGGRVVTREEANTALDYYRSAKAGKRTLEAMRNRFRWITGRHDMDKLKLYEKDRDNFKESRRNLLKFLGERLYEEVKGRLDSGICLHDRDLKMIALDINKKETHVENFKACQTWITNWKRSYNIVSRKITKFVTRRYVRNKAATLQSAKDFVQGCRMDISSYGPEMIFNADQCGIQKELFGARSLAYLGEKSVERIVQSLSSLTHSFTFLPMIFMNGTLGPKAYMKIAEPTGHFPPSRPIPVCSNLEVHAGKSHIMTKDDMRVWLRNCVAHQQCPKKMLMIVDSWTSFKDHATIQSCMQNGVDLTIRNIPPGTTSLIQPLDVHFNGPWKTLIKNFTSYVMSFCPDYIIANRNNTIMMTSLLYHQVSAALFEPFLKYSWNKAGYTDSHDEFVTPADYCFGDVGEEECGFGGCSEFSFIRCARCNCQICFEHFVVDDQHFCPCP” as the sequence, how does the “soluble on expression in E. coli” value read?
Its value is “not soluble”.

Which “soluble on expression in E. coli” value does the source give for “MRVAFCLYKYFPFGGLQRDFMRIAQTVAARGHQVRVYTQSWEGECPDNFELIRVPVKSRTNHGRNAEYYAWVQHHLRDHPVDRVVGFNKMPGLDVYYAADVCYAEKVAQEKGFFYRLTSRYRHYAAFERATFEHGKPTQLLMLTNKQIADFQKHYQTEAERFHILPPGIYPDRKYSQQIPNSRQIYRQKNGISEQQKLLLQVGSDFTRKGVDRSIEALASLPESLRQNTVLYVVGQDKPKKFAALAERSGVGTNVHFFSGRNDIAELMAAADLLLHPAYQEAAGIVLLEAITAGLPVLTTAVCGYAHYIVDANCGEAMTEPFRQDALNEVLLKALTQPSLRNAWAENARYYADTQDLYSLPEKAADIITGDLDG” here?
Its value is “not soluble”.

With “MSENPLLERARRFLSALRHCQVLGLTVEAADEKGLTLRLPYSQAIIGNPESGVVHGGAITTLMDTTCGISTVCVLPDFEICPTLDLRIDYMHPAEPHKDVYGFAECYRVTPNVIFTRGFAYQDDPGQPIAHVVGAFMRMGLEHHHHHH” as the sequence, how does the “soluble on expression in E. coli” value read?
The value was “soluble”.

Which “soluble on expression in E. coli” value does the source give for “MSLMKNILAIQSHVVYGHAGNSAAEFPMRRLGANVWPLNTVQFSNHTQYGKWTGCVMPPSHLTEIVQGIAAIDKLHTCDAVLSGYLGSAEQGEHILGIVRQVKAANPQAKYFCDPVMGHPEKGCIVAPGVAEFHVRHGLPASDIIAPNLVELEILCEHAVNNVEEAVLAARELIAQGPQIVLVKHLARAGYSRDRFEMLLVTADEAWHISRPLVDFGMRQPVGVGDVTSGLLLVKLLQGATLQEALEHVTAAVYEIMVTTKAMQEYELQVVAAQDRIAKPEHYFSATKLEGGSHHHHHH” here?
Its value is “soluble”.

Which “soluble on expression in E. coli” value does the source give for “MLSTIEYLSLLRKYMRENAVKYGISRMGIFGSVARGEQHDGSDVDICVEIDRPSIFTLVHIKEELEKLFKCPVDVVRLRNNMDELLRNCINKDGIYV” here?
Its value is “not soluble”.

Which “soluble on expression in E. coli” value does the source give for “MGSDKIHHHHHHMLSGSTQLMPSTVGLASAHLQYSASFFPTTAVYSLLFPDKSIIIGTVALGYAQTRPQDLPVTHILTKGNRTFKLSIASTPEQLEKGLKFRSSLNGDSGMLFNLGGEIYNVPFWMYKVNFPLDIFYLKDNVVTTAVYNAKPCYKNPCPIYKGKVANQVLELATGTANIKVGDRLNIQPLSSAKE” here?
Its value is “not soluble”.

Which “soluble on expression in E. coli” value does the source give for “GSSVSSVPTKLEVVAATPTSLLISWDAPMSSSSVYYYRITYGETGGNSPVQEFTVPYSSSTATISGLSPGVDYTITVYAWGEDSAGYMFMYSPISINYRTC” here?
Its value is “soluble”.

With “DGISSLLKPLSKIGLDTKTFALLISMTLRFVPILSDEFSTIVDAQRSRGLSLKTGSIVKRTKTLIPMIIPLISVAFKKALTLADTMEIRGFIDAKSRTSFHQLKFQKID” as the sequence, how does the “soluble on expression in E. coli” value read?
Its value is “not soluble”.

Which “soluble on expression in E. coli” value does the source give for “MQHEEGNRQRPQGELLLRTVAMPRDTNPNQDIFGGWIMSQMDLGGGILAAEIARGRIVTVAVQEMNFIRPVKVGNVVCCYGHCVRVGNTSLQLKVEVWVKTLMNDCVTEDRHLVTEAVFTYVAIDAEGNPRPIPKEGNPILAGLLPTPLEHHHHHH” here?
The value was “soluble”.

For “VTQLPQPTWRWWQQRETEQVQSSHIDGEIVGALIPDLAVLHSEDASRAAVGREKHRCSLDPLGGGFRSRRASMPAGALLLSAVIAIQLDRMNARVFGDGWIGAQACMWVNKFHEESTVTALSPSSPIAQGSIARHPETMQSAYVRIAEGGSRDVAPAAQLQRRRP”, which “soluble on expression in E. coli” value is on record?
Its value is “not soluble”.

For “MAHHHHHHMPQCGTEKHVSAPPSYTGPFVAVVVDLDGTILDDNHRVSDVTKATLYEVASCGVHIIIATGRPREGVAAIEQELNSYFRCNSRVPGRATSLAEVKGFHLVASNGARIYNTTGELISAESIDNSVVRAIYERVTESNINANSEDSMLVSVHQTGAWWVNNVLPEEWLRRKYGTLPEVRQNLSDFPTDGVGKICLRSFNEGTLRTFQKELDTKYEHYITTVMTSDHCLDIMPKGVSKASALRMVGEILNFEPHRDAIAFGDSLNDRDMLESVAKGCIMKNGKNELKELLPHVEVVGCNEEDGVAHKLREVFLLS”, which “soluble on expression in E. coli” value is on record?
Its value is “not soluble”.
